The target in experiment [1] is T1, human CD70 expressed on the surface of cells (human) (UniProt P32970).
T1 sequence (looked up): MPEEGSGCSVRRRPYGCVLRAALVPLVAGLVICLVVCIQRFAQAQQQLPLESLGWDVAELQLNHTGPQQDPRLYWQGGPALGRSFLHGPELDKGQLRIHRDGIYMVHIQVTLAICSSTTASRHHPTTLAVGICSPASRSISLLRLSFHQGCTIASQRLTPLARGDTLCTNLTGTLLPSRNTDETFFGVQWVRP
Nature of the experiment: cell-based or functional assay.

In experiment [2] the target is T2, recombinant human CD70 (Flag-TNC-CD70) (human) (UniProt P32970).
T2 sequence (looked up): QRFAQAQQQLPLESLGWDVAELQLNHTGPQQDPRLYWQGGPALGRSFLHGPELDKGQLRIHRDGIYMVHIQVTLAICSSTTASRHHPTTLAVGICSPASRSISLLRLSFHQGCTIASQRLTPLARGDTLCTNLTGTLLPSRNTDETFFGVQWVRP
The experiment can be described thus: blocking ELISA; human Flag-TNC-CD70; competitor CD27-Fc.

The target in experiment [3] is rhesus recombinant CD70 (FLAG-TNC-rhesus CD70) (rhesus). Nature of the experiment: blocking ELISA; rhesus Flag-TNC-CD70; competitor CD27-Fc.
The target of experiment [4] is cynomolgus monkey Flag-TNC-CD70 (cynomolgus monkey). The experiment can be described thus: blocking ELISA; cynomolgus Flag-TNC-CD70; competitor CD27-Fc.
The target of experiment [5] is T2, recombinant human CD70 (Flag-TNC-CD70) (human). Nature of the experiment: inhibition ELISA; Flag-TNC-CD70 captured by anti-Flag mAb; competitor CD27-Fc. In general terms: An ELISA detects its analyte on a solid surface through an enzyme-linked reagent.
For experiment [6], the target named is T1, human CD70 expressed on the surface of cells (human). Nature of the experiment: flow cytometry on U266 cells, goat anti human IgG1 FITC [panel U266].
Experiment [7] deals with T2, recombinant human CD70 (Flag-TNC-CD70) (human). Nature of the experiment: blocking ELISA; Flag-TNC-CD70 captured by anti-FLAG M2; competitor CD27-Fc 6.5 nM.
The target of experiment [8] is T3, rhesus CD70 on LCL8664 cells (rhesus) (UniProt F7GPA5).
T3 sequence: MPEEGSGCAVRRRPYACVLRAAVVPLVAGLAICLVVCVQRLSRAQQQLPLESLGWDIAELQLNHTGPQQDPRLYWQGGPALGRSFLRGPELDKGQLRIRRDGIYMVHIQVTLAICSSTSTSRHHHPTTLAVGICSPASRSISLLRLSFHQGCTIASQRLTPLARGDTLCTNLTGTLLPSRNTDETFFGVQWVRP
Nature of the experiment: flow cytometry on rhesus LCL8664 cells, goat anti human IgG1 FITC [panel Rhesus monkey]. (In general: Flow cytometry measures light scatter and fluorescence of single cells or particles in a stream.)

Experiment [9] concerns the target T1, human CD70 expressed on the surface of cells (human). Nature of the experiment: flow cytometry on U266 cells, 1 h at 4 °C, anti-hIgG1-Fc-FITC or anti-hIgG-Fc-PE [panel U266].
In experiment [10] the target is T2, recombinant human CD70 (Flag-TNC-CD70) (human). The experiment can be described thus: Biacore; recombinant human CD70 on CM5 chip; Fab injected. (In SPR one partner is held on a chip, and binding of the other changes the refractive index at the surface.)
Experiment [11] shares this target. The experiment can be described thus: Biacore; recombinant human CD70 on CM5 chip; Fab from papain digestion.

One may read the IC50 as the point on the concentration scale where inhibition reaches its midpoint. One may read the EC50 (read off the curve) as the concentration giving half of the maximal effect. The term koff denotes a measure of how fast the partners let go of each other.

B1: SGN70 (antibody, INN chains, looked up, V domains shown)
VH: QVQLVQSGAEVKKPGASVKVSCKASGYTFTNYGMNWVRQAPGQGLKWMGWINTYTGEPTYADAFKGRVTMTRDTSISTAYMELSRLRSDDTAVYYCARDYGDYGMDYWGQGTTVTVSS
VL: DIVMTQSPDSLAVSLGERATINCRASKSVSTSGYSFMHWYQQKPGQPPKLLIYLASNLESGVPDRFSGSGSGTDFTLTISSLQAEDVAVYYCQHSREVPWTFGQGTKVEIK
For the molecule B1, the IC50 (ng/ml), IL-8 secretion in Raji / HT1080-CD27 co-culture assay in experiment [1] stood at 55 ng/mL. For the same molecule, the IC50 was 0.054 µg/mL in experiment [2]; 0.178 µg/mL in experiment [3]; 0.112 µg/mL in experiment [4]; 0.33 µg/mL in experiment [5]; 4.97 µg/mL in [7]. Besides, the half-maximal effective concentration (EC50 (read off the curve)) stood at 0.08 µg/mL in experiment [6], 0.1 µg/mL in experiment [8] and 0.08 µg/mL in experiment [9].

B2: SGN70-Fab (Fab, INN chains, looked up, V domains shown)
VH: QVQLVQSGAEVKKPGASVKVSCKASGYTFTNYGMNWVRQAPGQGLKWMGWINTYTGEPTYADAFKGRVTMTRDTSISTAYMELSRLRSDDTAVYYCARDYGDYGMDYWGQGTTVTVSS
VL: DIVMTQSPDSLAVSLGERATINCRASKSVSTSGYSFMHWYQQKPGQPPKLLIYLASNLESGVPDRFSGSGSGTDFTLTISSLQAEDVAVYYCQHSREVPWTFGQGTKVEIK
modifications: Fab
As for B2, the koff in experiment [10] and in [11] was 0.0007 s⁻¹ throughout.
